These results are taken from publication PMC5114558, “Reader domain specificity and lysine demethylase-4 family function” (Nature Communications, 2016).

Common to all, as to details: both partners purified
The target in one assay is T1, KDM4B-DTD N960A (human, UniProt O94953 917-1031, N960A).
T1 construct: Human KDM4B double tudor domain, residues 917-1031 of UniProt O94953 (isoform 1); also called N960A variant; source: E. coli BL21 (DE3), purified (Ni-NTA)
T1 sequence (looked up): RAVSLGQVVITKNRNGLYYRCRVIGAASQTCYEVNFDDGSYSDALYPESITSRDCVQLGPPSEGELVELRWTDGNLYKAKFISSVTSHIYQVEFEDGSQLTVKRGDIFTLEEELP
Description: fluorescence polarisation; fluorescein-labelled histone peptide 3 nM, KDM4 DTD titrated 0.1-100 μM; 30 mM HEPES, 150 mM NaCl pH 7.4, 0.01% Triton X-100. (In general: In fluorescence polarisation assays a small probe gives low polarisation when free and higher when bound to something large.)

For the next assay, the target named is T2, KDM4B-DTD S965D (human, UniProt O94953 917-1031, S965D).
T2 construct: Human KDM4B double tudor domain, residues 917-1031 of UniProt O94953 (isoform 1); also called KDM4B-S965D; source: E. coli BL21 (DE3), purified (Ni-NTA)
T2 sequence (looked up): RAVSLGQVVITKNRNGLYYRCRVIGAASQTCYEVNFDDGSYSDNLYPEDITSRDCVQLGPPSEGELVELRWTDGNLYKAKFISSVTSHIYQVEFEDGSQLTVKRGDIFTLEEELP
The description is as above.

Assay [1] concerns the target T3, KDM4C double tudor domain (KDM4C-DTD), HaloTag-tagged, wild type (human, UniProt Q9H3R0 877-991).
T3 construct: Human KDM4C double tudor domain, residues 877-991 of UniProt Q9H3R0 (isoform 1); pFN29 construct; also called HT-KDM4 DTD; source: E. coli BL21 (DE3), purified (Ni-NTA); not shown: HaloTag, N-terminal, kept
T3 sequence (looked up): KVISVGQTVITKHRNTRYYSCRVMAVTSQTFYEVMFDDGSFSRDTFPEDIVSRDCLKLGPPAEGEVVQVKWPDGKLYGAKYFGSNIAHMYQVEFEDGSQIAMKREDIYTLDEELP
The assay is described as above.

For another assay, the target named is T4, KDM4A-DTD N931D (human, UniProt O75164 895-1011, N931D).
T4 construct: Human KDM4A double tudor domain, residues 895-1011 of UniProt O75164 (isoform 1); source: E. coli BL21 (DE3), purified (Ni-NTA)
T4 sequence (looked up): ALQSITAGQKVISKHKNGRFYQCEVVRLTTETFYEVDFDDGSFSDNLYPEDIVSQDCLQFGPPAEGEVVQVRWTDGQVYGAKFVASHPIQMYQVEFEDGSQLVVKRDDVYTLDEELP
Described as above.

Assay [2] deals with T5, KDM4A double tudor domain (KDM4A-DTD), His6 tag cleaved, for crystallization (human, UniProt O75164 895-1011).
T5 construct: Human KDM4A double tudor domain, residues 895-1011 of UniProt O75164 (isoform 1); pET28 construct (pET28b in the plasmid section, pET28a in the purification section); also called N-His6-KDM4A-DTD; source: E. coli BL21 (DE3), purified (HisTrap, thrombin cleavage, gel filtration); not shown: His6, N-terminal, cleaved
T5 sequence (looked up): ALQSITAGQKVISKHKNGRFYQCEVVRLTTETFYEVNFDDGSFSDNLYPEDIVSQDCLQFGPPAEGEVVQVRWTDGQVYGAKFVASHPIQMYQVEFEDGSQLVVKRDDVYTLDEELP
Description: crystal structure; KDM4A-DTD mixed with H3K23me3 peptide at about 1:1.5, crystallized at 20 °C in 100 mM CAPS pH 10.5, 200 mM lithium sulfate, 1.2 M NaH2PO4, 0.8 M K2HPO4.

No end group written: not given here. Me3 = trimethyl-lysine

In general, Kd refers to the constant that tells how readily two partners part at equilibrium. A higher Kd goes with weaker binding. Take ARTK(Me3)QTARKSTGGK (also: fluorescein label, end not given here) [H3K4me3 peptide, fluorescein-labelled]: the Kd is 303 µM in the assay with KDM4B-DTD N960A, about 200 µM in the assay with KDM4B-DTD S965D and 6.8 µM in assay [1].
ARKSTGGK(Me3)APRKQLATK (also: fluorescein label, end not given here) [H3K14me3 peptide, fluorescein-labelled] registered a Kd with KDM4A-DTD N931D of 12.2 µM.

B1: H3 (19-28) K23me3 peptide for co-crystallization (peptide, UniProt P68431 20-29, looked up)
peptide: QLATK(Me3)AARKS
notes: density seen for Q19-K27; also called H3K23me3 peptide; H3 (19-27) K23me3 peptide; source: synthetic peptide, bought: Peptide 2.0
As for B1, the binding result in assay [2] was “binds”.
